From the RNAGym collection of RNA variant scans (doi:10.1021/acssynbio.7b00057)

B1: Pistol ribozyme (parent)
chain: GGGUCGUUGUUCCAUAAUCGCGUGGAUAUGGCACGCAAGUUUCUACCGGGCACCGUAAAUGUCCGACUGGAGCCGUUCGGGCGGCUAUAAACAGACCUCAGGCCCGAAGCGUGGCGGCACCUGCCGCCGGUGGUAAAAAAGAUCGGAAGAGCACACGUCU

Variants of: B1
Assay: aptazyme ON/OFF ratio, guanine; higher = stronger switching; co-transcriptional cleavage with and without guanine

Row | Variant | aptazyme ON/OFF ratio
1 | U8A G9C U10G C12G C13U | 1.2
2 | U8A G9C U10G C12G C13A | 1.23
3 | U8A G9C U10G C12G C13G | 1.15
4 | U8A G9C U10C U11C | 1.01
5 | U8A G9C U10C U11A | 0.878
6 | U8A G9C U10C U11G | 0.775
7 | U8A G9A U11G | 1.44
8 | U8A G9C U10G U11A C12A | 1.31
9 | U8A G9C U10G U11A C12G | 1.28
10 | U8A G9C U10G U11A C12U | 1.06
11 | U8A G9C U10A U11C C12U | 1.06
12 | U8A G9C U10A U11C C12A | 1.21
13 | U8A G9C U10A U11C C12G | 1.1
14 | U8A G9C U10A C13U | 1.13
15 | U8A G9C U10A C13A | 1.15
16 | U8A G9C U10A C13G | 1.06
17 | U8A G9C U10G U11A C13G | 1.06
18 | U8A G9C U10G U11A C13A | 1.03
19 | U8A G9C U10G U11A C13U | 1.02
20 | U8A G9C U10G U11C C12U C13G | 1.18
21 | U8A G9C U10G U11C C12U C13A | 1.13

Row | Variant | aptazyme ON/OFF ratio
22 | U8A G9C U10G U11C C12U C13U | 1.16
23 | U8A G9C U10A U11C C13A | 1.1
24 | U8A G9C U10A U11C C13G | 1.03
25 | U8A G9C U10A U11C C13U | 1
26 | U8A G9A U11G C12A C13A | 1.14
27 | U8A G9A U11G C12A C13G | 1.21
28 | U8A G9A U11G C12A C13U | 1.09
29 | U8A G9C U10G C13A | 1.38
30 | U8A G9C U10G C13U | 1.31
31 | U8A G9C U10G C13G | 1.17
32 | U8A G9C U10G U11G | 1.07
33 | U8A G9C U10G U11C | 1.05
34 | U8A G9C U10G U11A | 1.03
35 | U8A G9C U11A C12G C13U | 1.14
36 | U8A G9C U11A C12G C13A | 1.12
37 | U8A G9C U11A C12G C13G | 1.17
38 | U8A G9U U10A U11A C12U | 1.32
39 | U8A G9U U10A U11A C12G | 1.25
40 | U8A G9U U10A U11A C12A | 1.36
41 | U8A G9C U10C C12U C13A | 1.04
42 | U8A G9C U10C C12U C13U | 1.03

Row | Variant | aptazyme ON/OFF ratio
43 | U8A G9C U10C C12U C13G | 1.03
44 | U8A G9C U10A U11C C12U C13U | 1.09
45 | U8A G9C U10A U11C C12U C13G | 1.15
46 | U8A G9C U10A U11C C12U C13A | 1.07
47 | U8A G9C U10A U11G C12G | 1.18
48 | U8A G9C U10A U11G C12A | 1.06
49 | U8A G9C U10A U11G C12U | 1.25
50 | U8A G9C U10G C12U C13A | 1.21
51 | U8A G9C U10G C12U C13G | 1.11
52 | U8A G9C U10G C12U C13U | 1.22
53 | U8A G9C U11C C12U C13G | 1.04
54 | U8A G9C U11C C12U C13U | 1.01
55 | U8A G9C U11C C12U C13A | 1.05
56 | U8A G9U U10A U11C C12A C13G | 1.2
57 | U8A G9U U10A U11C C12A C13U | 1.25
58 | U8A G9U U10A U11C C12A C13A | 1.23
59 | U8A G9C U10A U11G | 1.3
60 | U8A G9C U10A U11C | 1.01
61 | U8A G9C U10A U11A | 1.37
62 | U8A G9U U10A U11A C12U C13A | 1.21
63 | U8A G9U U10A U11A C12U C13U | 1.53

Row | Variant | aptazyme ON/OFF ratio
64 | U8A G9U U10A U11A C12U C13G | 1.36
65 | U8A G9U U10A U11C C12U C13A | 1.25
66 | U8A G9C U11G C12G C13U | 1.07
67 | U8A G9C U11G C12G C13A | 1.18
68 | U8A G9C U11G C12G C13G | 1.14
69 | U8A G9C U11A C12U | 1.22
70 | U8A G9C U11A C12G | 1.22
71 | U8A G9C U11A C12A | 1.19
72 | U8A G9A U11G C12G C13A | 1.23
73 | U8A G9A U11G C12G C13U | 1.27
74 | U8A G9A U11G C12G C13G | 1.26
75 | U8A G9C U11C C13U | 1.06
76 | U8A G9C U11C C13G | 1.04
77 | U8A G9C U11C C13A | 1.06
78 | U8A G9C U10C U11A C13A | 1.16
79 | U8A G9C U10C U11A C13U | 1.11
80 | U8A G9C U10C U11A C13G | 1.07
81 | U8A G9C U10C U11A C12U C13U | 1.13
82 | U8A G9C U10C U11A C12U C13A | 1.07
83 | U8A G9C U10C U11A C12U C13G | 1.06
